In US20120134979A1, “METHODS AND COMPOSITIONS FOR THE TREATMENT OF SICKLE CELL DISEASE” (priority 2010, published 2012):

Test system: SCD Tg mice
Assay: Hypoxia/reoxygenation-induced acute sickle crisis in SCD Tg mice with PEG-ADA pretreatment
Format: in vivo, mouse
Description: Adenosine Analysis. The adenosine concentration present in whole blood was measured by HPLC as previously described (Knudsen, T. B., et al. Effects of (R)-deoxycoformycin (pentostatin) on intrauterine nucleoside catabolism and embryo viability in the pregnant mouse. Teratology 45, 91-103, 1992) with modifications. In brief, 500 μl of 0.6 M cold perchloric acid was added to 500 μl blood on ice, mixed using a vertex mixer and subsequently subject to sonication for 10 seconds with output 6 (W-220F, Heat Systems-Ultrasonic, Inc.). The homogenate was centrifuged at 20,000 g for 10 min at […]. The supernatant (568 μl) was transferred to a new tube and neutralized with 40.9 μl 3 M KHCO3/3.6 N KOH. Phenol red (2 μl of 0.2 mg/ml) was added as indicator. The sample was acidified with 5.7 μl of 1.8 M ammonium dihydrogen phosphate (pH 5.1) and 13.2 μl phosphoric acid (30%). Finally, the sample was centrifuged at 20,000 g for 5 min and the supernatant was transferred to a new tube and stored at −20° C. Before HPLC assay, the sample was thawed on ice, then centrifuged at 20,000 g for 10 minutes. The supernatant was transferred to a new tube for HPLC analysis as described previously (Aldrich, et al. Adenosine deaminase-deficient mice: models for the study of lymphocyte development and adenosine signaling. Adv Exp Med. Biol. 2000; 486, 57-63; Blackburn, et al. Metabolic and immunologic consequences of limited adenosine deaminase expression in mice. The Journal of Biological Chemistry. 1996; 271(25):15203-15210). Plasma adenosine measurements were performed as with whole blood, except the sonication step was omitted. Adenosine content was normalized to volume.
Hypoxia/reoxygenation of SCD Tg mice. SCD Tg mice were subjected to two-hour hypoxic condition with 8% oxygen. After hypoxia, mice were returned to normoxic conditions for four hours Wallace, et al. NKT cells mediate pulmonary inflammation and dysfunction in murine sickle cell disease through production of IFN-gamma and CXCR3 chemokines. Blood. 2009; 114(3):667-676). At the end of the experiments, mice were sacrificed and blood collected for adenosine measurement, sickling and hemolytic analysis.
Morphological study of erythrocytes and quantification of reticulocytes by flow cytometry. Blood smears were stained using the WG16-500 ml kit (Sigma-Aldrich) for sickled cells and observed using 100× oil immersion objective of Olympus BX60 microscope. […] The percentages of sickled cells among the counted cells were calculated. Reticulocyte was labeled by Retic-COUNT Reagent (Becton Dickinson) and quantified by flow cytometry (Perumbeti, et al., A novel human gamma-globin gene vector for genetic correction of sickle cell anemia in a humanized sickle mouse model: critical determinants for successful correction. Blood. 2009; 114(6):1174-1185).
2,3-DPG analysis. 2,3-DPG concentration in RBCs was detected by a commercially available kit (Roche, Nutley, N.J., and as described in Ericson A, de Verdier C H. A modified method for the determination of 2,3-diphosphoglycerate in erythrocytes. Scandinavian journal of clinical and laboratory investigation. 1972; 29(1):84-90).
Hemolytic analysis. The hemoglobin, haptoglobin and total bilirubin in mouse plasma were quantified by ELISA kits following instructions provided by the vendor (BioAssay Systems, Hayword, Calif.).

[1] = SCD Tg mice, 2 h hypoxia/4 h reoxygenation, PEG-ADA pretreatment
[2] = SCD Tg mice, hypoxic/reoxygenation condition

B1: PEG-ADA: polyethylene glycol-modified adenosine deaminase, a drug used to lower adenosine concentrations in ADA-deficient humans (protein, UniProt P56658 2-363, looked up)
Adenosine deaminase: AQTPAFNKPKVELHVHLDGAIKPETILYYGRKRGIALPADTPEELQNIIGMDKPLSLPEFLAKFDYYMPAIAGCREAVKRIAYEFVEMKAKDGVVYVEVRYSPHLLANSKVEPIPWNQAEGDLTPDEVVSLVNQGLQEGERDFGVKVRSILCCMRHQPSWSSEVVELCKKYREQTVVAIDLAGDETIEGSSLFPGHVKAYAEAVKSGVHRTVHAGEVGSANVVKEAVDTLKTERLGHGYHTLEDATLYNRLRQENMHFEVCPWSSYLTGAWKPDTEHPVVRFKNDQVNYSLNTDDPLIFKSTLDTDYQMTKNEMGFTEEEFKRLNINAAKSSFLPEDEKKELLDLLYKAYGMPSPASAEQCL
modifications: PEGylated
2,3-DPG elevation by hypoxia/reoxygenation (SCD Tg mice RBCs, PEG-ADA pretreatment): significantly inhibited its elevation | plasma adenosine levels [1]: significantly lowered | plasma hemoglobin [1]: decreased | plasma total bilirubin [1]: decreased | sickling [1]: reduced | HCT [2]: 21.25 ± 2.52 % | Hb [2]: 4.58 ± 0.38 g/dL | MCH [2]: 9.12 ± 0.72 pg | MCHC [2]: 18.65 ± 1.82 g/dL | MCV [2]: 48.93 ± 2.05 fL | RBC [2]: 4.94 ± 0.17 M/μl | RDW [2]: 29.72 ± 1.95 % | WBC [2]: 18.68 ± 3.32 k/μl
